Measurements: article PMC4558565
Where “and” joins values, the source holds several entries; their conditions need not be identical. Identical values can stand only once.

Legend:
[1] = target: bZIP1-VENUSN (m29) signal relative to bZIP11-CFPN (m30) signal; experiment: multi-color BiFC in N. tabacum leaves, confocal microscopy; conditions: co-transformed with mCherry-tagged AKIN10; 115-118 nuclei; value is the median of the box plot; parent: est. 2.4; read off a plot
[2] = target: bZIP63 in which S29 or all three serines were mutated to alanine; experiment: two-hybrid; protoplast two-hybrid (P2H) in Arabidopsis leaf protoplasts; GAL4-AD and GAL4-BD fusions, GAL-UAS4::GUS reporter normalised to 35S::NAN; without and with co-transformation of AKIN10; 16 hr

With “bZIP63 (split-CFP BiFC fusion) (from UniProt B9DGI8) S29A; S294A; S300A” the other: VENUS/CFP (norm.) [1] was 1.

B1: bZIP11 (protoplast two-hybrid fusion) (natural protein)
chain: MESSSSGTTSSTIQTSSGSEESLMEQRKRKRMLSNRESARRSRMKKQKLLDDLTAQVNHLKKENTEIVTSVSITTQHYLTVEAENSVLRAQLDELNHRLQSLNDIIEFLDSSNNNNNNNMGMCSNPLVGLECDDFFVNQMNMSYIMNQPLMASSDALMY
With B1 the % of the signal with wt bZIP63 [2] was 30% and 40%.

B2: bZIP63 (protoplast two-hybrid fusion) (natural protein)
chain: MEKVFSDEEISGNHHWSVNGMTSLNRSASEWAFNRFIQESSAAADDGESTTACGVSVSSPPNVPVDSEEYRAFLKSKLNLACAAVAMKRGTFIKPQDTSGRSDNGGANESEQASLASSKATPMMSSAITSGSELSGDEEEADGETNMNPTNVKRVKRMLSNRESARRSRRRKQAHLSELETQVSQLRVENSKLMKGLTDVTQTFNDASVENRVLKANIETLRAKVKMAEETVKRLTGFNPMFHNMPQIVSTVSLPSETSNSPDTTSSQVTTPEIISSGNKGKALIGCKMNRTASMRRVESLEHLQKRIRSVGDQ
In the case of B2, the % of the signal with wt bZIP63 [2] is reported as 30% and 40%.
